Data set [1] concerns the target T1, Z-Arg-Leu-Arg-Gly-Gly (SEQ ID NO: 1)-amino-luciferin.
T1 chain: RLRGG

The target of data set [2] is hSUMO2-amino-luciferin, P61956.
Data set [3] addresses Ub(1-76)-aminoluciferin.
For data set [4], the target named is ubiquitin-rhodamine110, P0CG47.
In data set [5] the target is ubiquitin-7-amino-4-methylcoumarin, P0CG47.
ubiquitin-7-amino-4-methylcoumarin, P0CG47, sequence (P0CG47 whole entry, looked up): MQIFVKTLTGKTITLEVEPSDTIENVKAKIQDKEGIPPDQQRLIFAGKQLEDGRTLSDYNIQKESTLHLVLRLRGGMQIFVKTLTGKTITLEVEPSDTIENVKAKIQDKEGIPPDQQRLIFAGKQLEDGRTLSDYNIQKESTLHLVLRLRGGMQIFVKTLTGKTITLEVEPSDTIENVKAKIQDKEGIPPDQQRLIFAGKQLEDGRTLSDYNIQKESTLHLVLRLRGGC

hSUMO2-amino-luciferin, P61956, sequence (P61956 1-93): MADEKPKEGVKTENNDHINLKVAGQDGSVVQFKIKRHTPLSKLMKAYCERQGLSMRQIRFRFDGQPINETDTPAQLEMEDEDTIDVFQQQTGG
ubiquitin-rhodamine110, P0CG47, sequence (P0CG47 whole entry, looked up): as the sequence (P0CG47 whole entry, looked up) above

B1: UCHL5 (protein)
chain: MTGNAGEWCLMESDPGVFTELIKGFGCRGAQVEEIWSLEPENFEKLKPVHGLIFLFKWQPGEEPAGSVVQDSRLDTIFFAKQVINNACATQAIVSVLLNCTHQDVHLGETLSEFKEFSQSFDAAMKGLALSNSDVIRQVHNSFARQQMFEFDTKTSAKEEDAFHFVSYVPVNGRLYELDGLREGPIDLGACNQDDWISAVRPVIEKRIQKYSEGEIRFNLMAIVSDRKMIYEQKIAELQRQLAEEEPMDTDQGNSMLSAIQSEVAKNQMLIEEEVQKLKRYKIENIRRKHNYLPFIMELLKTLAEHQQLIPLVEKAKEKQNAKKAQETK
Consider B1, for which the Signal to Background, luminescence, DUB 10 nM in data set [1] turned out to be 1.4 S/B.

B2: USP8 (protein)
chain: MPAVASVPKELYLSSSLKDLNKKTEVKPEKISTKSYVHSALKIFKTAEECRLDRDEERAYVLYMKYVTVYNLIKKRPDFKQQQDYFHSILGPGNIKKAVEEAERLSESLKLRYEEAEVRKKLEEKDRQEEAQRLQQKRQETGREDGGTLAKGSLENVLDSKDKTQKSNGEKNEKCETKEKGAITAKELYTMMTDKNISLIIMDARRMQDYQDSCILHSLSVPEEAISPGVTASWIEAHLPDDSKDTWKKRGNVEYVVLLDWFSSAKDLQIGTTLRSLKDALFKWESKTVLRNEPLVLEGGYENWLLCYPQYTTNAKVTPPPRRQNEEVSISLDFTYPSLEESIPSKPAAQTPPASIEVDENIELISGQNERMGPLNISTPVEPVAASKSDVSPIIQPVPSIKNVPQIDRTKKPAVKLPEEHRIKSESTNHEQQSPQSGKVIPDRSTKPVVFSPTLMLTDEEKARIHAETALLMEKNKQEKELRERQQEEQKEKLRKEEQEQKAKKKQEAEENEITEKQQKAKEEMEKKESEQAKKEDKETSAKRGKEITGVKRQSKSEHETSDAKKSVEDRGKRCPTPEIQKKSTGDVPHTSVTGDSGSGKPFKIKGQPESGILRTGTFREDTDDTERNKAQREPLTRARSEEMGRIVPGLPSGWAKFLDPITGTFRYYHSPTNTVHMYPPEMAPSSAPPSTPPTHKAKPQIPAERDREPSKLKRSYSSPDITQAIQEEEKRKPTVTPTVNRENKPTCYPKAEISRLSASQIRNLNPVFGGSGPALTGLRNLGNTCYMNSILQCLCNAPHLADYFNRNCYQDDINRSNLLGHKGEVAEEFGIIMKALWTGQYRYISPKDFKITIGKINDQFAGYSQQDSQELLLFLMDGLHEDLNKADNRKRYKEENNDHLDDFKAAEHAWQKHKQLNESIIVALFQGQFKSTVQCLTCHKKSRTFEAFMYLSLPLASTSKCTLQDCLRLFSKEEKLTDNNRFYCSHCRARRDSLKKIEIWKLPPVLLVHLKRFSYDGRWKQKLQTSVDFPLENLDLSQYVIGPKNNLKKYNLFSVSNHYGGLDGGHYTAYCKNAARQRWFKFDDHEVSDISVSSVKSSAAYILFYTSLGPRVTDVAT
For B2, in data set [2], the “luminescence signal (S/B), enzyme 200 pM” value was “hSUMO2-amino-luciferin yielded virtually no signal with the DUBs USP34, USP7, and USP8 at concentrations equal to 200 pM”. The “S/B against the S/B for both Ub-AMC and Ub-Rhodamine110, enzyme 0.5 nM” value in data set [3] is “increased by ~100-fold relative to the S/B for both Ub-AMC and Ub-Rhodamine110”.

B3: SENP6 (protein)
chain: EEETGENHTIFIGPVEKLIVYPPPPAKGGISVTNEDLHCLNEGEFLNDVIIDFYLKYLVLEKLKKEDADRIHIFSSFFYKRLNQRERRNHETTNLSIQQKRHGRVKTWTRHVDIFEKDFIFVPLNEAAHWFLAVVCFPGLEKPKYEPNPHYHENAVIQKCSTVEDSCISSSASEMESCSQNSSAKPVIKKMLNKKHCIAVIDSNPGQEESDPRYKRNICSVKYSVKKINHTASENEEFNKGESTSQKVADRTKSENGLQNESLSSTHHTDGLSKIRLNYSDESPEAGKMLEDELVDFSEDQDNQDDSSDDGFLADDNCSSEIGQWHLKPTICKQPCILLMDSLRGPSRSNVVKILREYLEVEWEVKKGSKRSFSKDVMKGSNPKVPQQNNFSDCGVYVLQYVESFFENPILSFELPMNLANWFPPPRMRTKREEIRNIILKLQEDQSKEKRKHKDTYSTEAPLGEGTEQYVNSISD
Turning to B3, the “luminescence signal (S/B), enzyme 200 pM” value in data set [2] was “SENP1, SENP2, and SENP6 (200 pM) on the other hand gave strong signals with hSUMO2-amino-luciferin”; in data set [1] it was “Z-Arg-Leu-Arg-Gly-Gly (SEQ ID NO: 1)-amino-luciferin also gave signals with SENP2 and SENP6 (200 pM)”.

B4: AMSH (associated molecule with the SH3 domain of STAM) (protein)
chain: MSDHGDVSLPPEDRVRALSQLGSAVEVNEDIPPRRYFRSGVEIIRMASIYSEEGNIEHAFILYNKYITLFIEKLPKHRDYKSAVIPEKKDTVKKLKEIAFPKAEELKAELLKRYTKEYTEYNEEKKKEAEELARNMAIQQELEKEKQRVAQQKQQQLEQEQFHAFEEMIRNQELEKERLKIVQEFGKVDPGLGGPLVPDLEKPSLDVFPTLTVSSIQPSDCHTTVRPAKPPVVDRSLKPGALSNSESIPTIDGLRHVVVPGRLCPQFLQLASANTARGVETCGILCGKLMRNEFTITHVLIPKQSAGSDYCNTENEEELFLIQDQQGLITLGWIHTHPTQTAFLSSVDLHTHCSYQMMLPESVAIVCSPKFQETGFFKLTDHGLEEISSCRQKGFHPHSKDPPLFCSCSHVTVVDRAVTITDLR
With B4, the Signal to Background, luminescence, DUB 10 nM in data set [1] was determined as 1.4 S/B.

B5: UCHL3 (ubiquitin carboxyl-terminal hydrolase isozyme L3) (protein)
chain: MEGQRWLPLEANPEVTNQFLKQLGLHPNWQFVDVYGMDPELLSMVPRPVCAVLLLFPITEKYEVFRTEEEEKIKSQGQDVTSSVYFMKQTISNACGTIGLIHAIANNKDKMHFESGSTLKKFLEESVSMSPEERARYLENYDAIRVTHETSAHEGQTEAPSIDEKVDLHFIALVHVDGHLYELDGRKPFPINHGETSDETLLEDAIEVCKKFMERDPDELRFNAIALSAA
With B5, the “signal to background (S/B) ratio, bioluminescence, 20 uM substrate, 40 nM UCHL3” value in data set [1] was “a signal to background (S/B) ratio of ~1000 was obtained”. Moreover, in data set [3], the “S/B against the S/B for Ub-AMC, UCHL3 0.01 nM” value is ~50-fold greater than the S/B for Ub-AMC; the “S/B against the S/B for Ub-rhodamine110, UCHL3 0.01 nM” value was ~200-fold greater than the S/B for Ub-rhodamine110; the “signal to background (S/B) ratio, bioluminescence, 100 nM substrate, 32 pM UCHL3” value is “the same S/B ratio of 1000 was obtained with 100 nM Ub-amino-luciferin and UCHL3 at a concentration of 32 pM”.

B6: SENP2 (sentrin-specific protease 2) (protein)
chain: DLLELTEDMEKEISNALGHGPQDEILSSAFKLRITRGDIQTLKNYHWLNDEVINFYMNLLVERNKKQGYPALHVFSTFFYPKLKSGGYQAVKRWTKGVNLFEQEIILVPIHRKVHWSLVVIDLRKKCLKYLDSMGQKGHRICEILLQYLQDESKTKRNSDLNLLEWTHHSMKPHEIPQQLNGSDCGMFTCKYADYISRDKPITFTQHQMPLFRKKMVWEILHQQLL
Take B6: the “luminescence signal (S/B), enzyme 200 pM” value in data set [2] is “SENP1, SENP2, and SENP6 (200 pM) on the other hand gave strong signals with hSUMO2-amino-luciferin”; in data set [1], “Z-Arg-Leu-Arg-Gly-Gly (SEQ ID NO: 1)-amino-luciferin also gave signals with SENP2 and SENP6 (200 pM)”.

B7: Ataxin3-like (protein)
chain: MDFIFHEKQEGFLCAQHCLNNLLQGEYFSPVELASIAHQLDEEERMRMAEGGVTSEEYLAFLQQPSENMDDTGFFSIQVISNALKFWGLEIIHFNNPEYQKLGIDPINERSFICNYKQHWFTIRKFGKHWFNLNSLLAGPELISDTCLANFLARLQQQAYSVFVVKGDLPDCEADQLLQIISVEEMDTPKLNGKKLVKQKEHRVYKTVLEKVSEESDESGTSDQDEEDFQRALELSRQETNREDEHLRSTIELSMQGSSGNTSQDLPKTSCVTPASEQPKKIKEDYFEKHQQEQKQQQQQSDLPGHSSYLHERPTTSSRAIESDLSDDISEGTVQAAVDTILEIMRKNLKIKGEK
In the case of B7, the figures for the Signal to Background, luminescence, DUB 10 nM in data set [1] and in data set [3] were 1.5 S/B and 120 S/B, respectively. In addition, the Signal to Background, fluorescence, DUB 10 nM in data set [4] is 1.6 S/B; in data set [5], 1.1 S/B.

B8: USP2core (the common catalytic core domain of the two isoforms of USP2, USP2a and USP2b) (protein)
chain: NSKSAQGLAGLRNLGNTCFMNSILQCLSNTRELRDYCLQRLYMRDLHHGSNAHTALVEEFAKLIQTIWTSSPNDVVSPSEFKTQIQRYAPRFVGYNQQDAQEFLRFLLDGLHNEVNRVTLRPKSNPENLDHLPDDEKGRQMWRKYLEREDSRIGDLFVGQLKSSLTCTDCGYCSTVFDPFWDLSLPIAKRGYPEVTLMDCMRLFTKEDVLDGDEKPTCCRCRGRKRCIKKFSIQRFPKILVLHLKRFSESRIRTSKLTTFVNFPLRDLDLREFASENTNHAVYNLYAVSNHSGTTMGGHYTAYCRSPGTGEWHTFNDSSVTPMSSSQVRTSDAYLLFYELASPPSRM
On to B8, for which, in data set [3], the “S/B against the S/B for both Ub-AMC and Ub-Rhodamine110, enzyme 0.5 nM” value was “increased by ~100-fold relative to the S/B for both Ub-AMC and Ub-Rhodamine110”.

B9: JosD2 (protein)
chain: MSQAPGAQPSPPTVYHERQRLELCAVHALNNVLQQQLFSQEAADEICKRLAPDSRLNPHRSLLGTGNYDVNVIMAALQGLGLAAVWWDRRRPLSQLALPQVLGLILNLPSPVSLGLLSLPLRRRHWVALRQVDGVYYNLDSKLRAPEALGDEDGVRAFLAAALAQGLCEVLLVVTKEVEEKGSWLRTD
On to B9, for which the Signal to Background, luminescence, DUB 10 nM in data set [1] was 2.1 S/B; in data set [3], 760 S/B. Further, the Signal to Background, fluorescence, DUB 10 nM is 8.2 S/B in data set [4] and 2.1 S/B in data set [5].

B10: SENP1 (protein)
chain: EFPEITEEMEKEIKNVFRNGNQDEVLSEAFRLTITRKDIQTLNHLNWLNDEIINFYMNMLMERSKEKGLPSVHAFNTFFFTKLKTAGYQAVKRWTKKVDVFSVDILLVPIHLGVHWCLAVVDFRKKNITYYDSMGGINNEACRILLQYLKQESIDKKRKEFDTNGWQLFSKKSQEIPQQMNGSDCGMFACKYADCITKDRPINFTQQHMPYFRKRMVWEILHRKLL
Take B10: the “luminescence signal (S/B), enzyme 200 pM” value in data set [2] was “SENP1, SENP2, and SENP6 (200 pM) on the other hand gave strong signals with hSUMO2-amino-luciferin”.

B11: USP34 (protein)
chain: VGLTNLGATCYLASTIQQLYMIPEARQAVFTAKYSEDMKHKTTLLELQKMFTYLMESECKAYNPRPFCKTYTMDKQPLNTGEQKDMTEFFTDLITKIEEMSPELKNTVKSLFGGVITNNVVSLDCEHVSQTAEEFYTVRCQVADMKNIYESLDEVTIKDTLEGDNMYTCSHCGKKVRAEKRACFKKLPRILSFNTMRYTFNMVTMMKEKVNTHFSFPLRLDMTPYTEDFLMGKSERKEGFKEVSDHSKDSESYEYDLIGVTVHTGTADGGHYYSFIRDIVNPHAYKNNKWYLFNDAEVKPFDSAQLASECFGGEMTTKTYDSVTDKFMDFSFEKTHSAYMLFYKRM
Take B11: the “luminescence signal (S/B), enzyme 200 pM” value in data set [2] was “hSUMO2-amino-luciferin yielded virtually no signal with the DUBs USP34, USP7, and USP8 at concentrations equal to 200 pM”.

(Values after patent US20120058499.)
